Source: patent US20260209387A1, “SINGLE-DOMAIN ANTIBODY FOR INHIBITION OF NEUTROPHIL ELASTASE ACTIVITY” (UNIVERSITE DE LIEGE, priority 2023, published 2026)

Assays:
hNE = target: T1, hNE (Homo sapiens, UniProt P08246); assay: Competitive binding by BLI with AAT, EI3 and Nb-H7S-Nter-P1
T1 construct: purchased Elastin Products Company (EPC)
T1 sequence (P08246 30-247): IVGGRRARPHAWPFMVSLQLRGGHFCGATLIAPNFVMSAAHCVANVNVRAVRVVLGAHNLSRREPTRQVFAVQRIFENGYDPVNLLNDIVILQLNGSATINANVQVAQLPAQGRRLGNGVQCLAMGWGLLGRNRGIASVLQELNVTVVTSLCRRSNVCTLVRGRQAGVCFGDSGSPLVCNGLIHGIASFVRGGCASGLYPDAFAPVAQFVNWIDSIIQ
Method: The biotinylated NbE201 (10 μg/ml in KB buffer) was immobilized on streptavidin biosensors (SA, Sartorius) following the provider's indications. A biosensor quenching step with biocytin 1 μg/mL was performed. […] The association was measured for 280 s in kinetic buffer (KB buffer, Sartorius). The experiments were carried out at 30° C. in 384-wells black-bottom microplates in polypropylene (Greiner Bio-One, Belgium) and with agitation (1000 rpm).

mNE = target: T2, mNE (Mus musculus, UniProt Q3UP87); assay: Affinity of NbE201 for mNE by BLI; format: binding
T2 sequence (Q3UP87 27-265): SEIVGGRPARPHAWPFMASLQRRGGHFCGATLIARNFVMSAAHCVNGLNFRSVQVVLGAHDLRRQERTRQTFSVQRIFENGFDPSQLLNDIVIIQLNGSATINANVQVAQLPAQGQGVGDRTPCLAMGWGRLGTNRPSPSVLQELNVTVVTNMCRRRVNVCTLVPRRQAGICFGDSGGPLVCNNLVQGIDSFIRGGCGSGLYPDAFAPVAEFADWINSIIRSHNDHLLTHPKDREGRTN
Method: For mNE, NbE201_Cter Biot was immobilized on SA biosensors (Sartorius) via the C-terminal biotin following the provider's indications. Then, the biosensors were immersed in a solution of mNE at different concentrations (100-50-25-12.5-6.25-3.125 nM). Association and dissociation kinetics were measured for 300 s and 600 s respectively. All the experiments (for both hNE and mNE) were carried out at 30° C. in 384-wells black-bottom microplates in polypropylene (Greiner Bio-One, Belgium) and with orbital agitation (1000 rpm). The obtained sensorgrams were fitted to a 1:1 model by using the Data Analysis Octet Software Version 10.0 (Sartorius) to derive the rate constants for association (kon) and dissociation (koff) and the equilibrium dissociation constant (KD-koff/kon).

human cathepsin G (hCG) = target: T3, human cathepsin G (hCG) (Homo sapiens, UniProt P08311); assay: hCG inhibition, substrate N-Succinyl-Ala-Ala-Pro-Phe p-nitroanilide; format: biochemical; conditions: chromogenic substrate
T3 construct: purchased Calbiochem
T3 sequence (P08311 21-244): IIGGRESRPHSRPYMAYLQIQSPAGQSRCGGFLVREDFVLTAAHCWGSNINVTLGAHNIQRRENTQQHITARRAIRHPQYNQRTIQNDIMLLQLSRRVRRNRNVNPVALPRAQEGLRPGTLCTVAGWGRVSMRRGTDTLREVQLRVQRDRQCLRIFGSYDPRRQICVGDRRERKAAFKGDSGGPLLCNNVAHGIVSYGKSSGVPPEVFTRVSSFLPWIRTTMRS
Excerpt: (§1) To determine whether NbE201 was specific for hNE, we first investigated its ability to inhibit several serine proteases: pancreatic elastase from pork (pPE, 39.2% sequence identity, from Sigma), mice neutrophil elastase (mNE, 74.9% sequence identity, from EPC) and with two other human serine proteases present in the lung: proteinase 3 (hPR3 from EPC, 54.7% sequence identity) and cathepsin G (hCG from Calbiochem, 36.7% sequence identity). The substrate used were Succinyl-Ala-Ala-Ala-paraNitroAnilide (1 mM in 0.1 M Tris pH 7.5 with NaCl 0.5 M and NaN3 0.01%, % w/v from Sigma-Aldrich) for pPE, MeOSuc-Ala-Ala-Pro-Val-AMC (100 μM in Tris 50 mM, NaCl 1 M, 0.05% (% w/v) Brij-35, pH 7.5) for mNE, N-Succinyl-Ala-Ala-Pro-Phe p-nitroanilide (0.45 mM in 100 mM HEPES pH 7.5, from Sigma Aldrich) for hCG and Boc-Ala-Ala-Nva-SBzl (0.22 mM in 100 mM MOPS pH 5.0 0.5 M NaCl, 100 μM DTNB, DMSO 10%, from EPC) for PR3. mNE (rmELA2 from R&D systems, United Kingdom) was first activated according to the supplier information. In brief, mNE was incubated with recombinant mouse active cathepsin C/DPPIy (rmCathepsin C from R&D systems) in MES 50 mM, NaCl 50 mM, pH 5.5 for 2 h at 37° C. The enzyme concentration in the assay was 6 nM, 14.7 nM, 25 nM, 5 nM for PPE, mNE, hCG and hPR3, respectively. Different molar ratios of NbE201: Enzyme were tested. […]

[1] = target: T4, porcine pancreatic elastase (pPE) (Sus scrofa, UniProt P00772); assay: pPE inhibition, substrate Succinyl-Ala-Ala-Ala-paraNitroAnilide; format: biochemical; conditions: chromogenic substrate
T4 construct: purchased Sigma
T4 sequence (P00772 27-266): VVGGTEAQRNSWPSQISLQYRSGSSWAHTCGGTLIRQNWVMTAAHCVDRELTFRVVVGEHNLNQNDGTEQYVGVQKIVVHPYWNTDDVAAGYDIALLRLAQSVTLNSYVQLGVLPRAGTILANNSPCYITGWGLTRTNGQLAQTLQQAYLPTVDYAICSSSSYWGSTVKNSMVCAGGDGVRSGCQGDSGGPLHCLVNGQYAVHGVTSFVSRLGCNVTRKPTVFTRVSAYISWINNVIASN
Excerpt: as §1

binding of hNE in complex with AAT to immobilized NbE201 (hNE; hNE 250 nM pre-incubated with AAT 1.5 μM): does not bind to NbE201 | binding of hNE pre-incubated with EI3 (MeOSuc-AAPV-CMK) to immobilized NbE201 (hNE; hNE 250 nM, EI3 15 μM): unable to bind to NbE201 | binding of hNE pre-incubated with cAb-H7S-Nter-P1 to immobilized NbE201 (hNE; hNE 250 nM, cAb-H7S-Nter-P1 1.5 μM): unable to bind to NbE201 | koff (mNE): 0.019 s⁻¹ | kon (mNE): 390000 M⁻¹ s⁻¹ | inhibition of human cathepsin G (human cathepsin G (hCG)): does not inhibit | inhibition of porcine pancreatic elastase [1]: does not inhibit
B1: NbE201: anti-hNE ISVD (VHH/nanobody) from immunized lama, amino acid sequence SEQ ID NO: 4 (protein)
VHH: QVQLQESGGGLVQAGGSLRLSCVVPGRTISLYRMGWFRQAPGKEREFVAGINWSGDMTDYVDSVKGRFTISRDNAKNTVYLEMNSLKPEDTAIYYCTADPKLLPLADSSYGYWGQGTQVTVSS
